Data set [1] deals with the molecule itself. Put plainly: ultracentrifugal analysis of self-association: 28 kDa measured, 26 kDa predicted. How it is done: An mKO protein solution with the composition consisting of 150 mM KCl and 50 mM HEPES-KOH (pH 7.4) was prepared. The molecular weight of mKO was determined by ultracentrifugal analysis. The above solution was centrifuged with an ultracentrifuge XL-1 (Beckman Coulter) at 25,000 rpm for 22 hours, so as to measure absorption at 540 nm around the maximum absorption (548 nm) of mKO. From the measurement results, the molecular weight of mKO was calculated to be 28 kDa (FIG. 3). This value was almost the same as 26 kDa predicted from the amino acid sequence, and thus it was confirmed that mKO exists in the form of a monomer.

Data set [2] concerns the molecule itself. Put plainly: ultracentrifugal molecular weight measurement of self-association.

The text below walks through data of patent US20070292909A1 (RIKEN, published 2007).

B1: monomerized Kusabira-Orange (mKO) (other)
chain: MVSVIKPEMKMRYYMDGSVNGHEFTIEGEGTGRPYEGHQEMTLRVTMAKGGPMPFAFDLVSHVFCYGHRPFTKYPEEIPDYFKQAFPEGLSWERSLEFEDGGSASVSAHISLRGNTFYHKSKFTGVNFPADGPIMQNQSVDWEPSTEKITASDGVLKGDVTMYLKLEGGGNHKCQFKTTYKAAKKILKMPGSHYISHRLVRKTEGNITELVEDAVAHS
notes: also called KO mutant
For B1, the binding result in data set [1] is “no binding”.

B2: cmkeima 620 (other)
chain: MRGSHHHHHHGMASMTGGQQMGRDLYDDDDKDPMVSVIAKQMTYKVYMSGTVNGHYFEVEGDGKGKPYEGEQTVKLTVTKGGPLPFAWDILSPQFQYGSIPFTKYPEDIPDYFKQSFPEGYTWERSMNFEDGAVCTVSNDSSIQGNCFIYNVKISGENFPPNGPVMQKKTQGWEPSTERLFARDGMLIGNDYMALKLEGGGHYLCEFKSTYKAKKPVRMPGRHEIDRKLDVTSHNRDYTSVEQCEIAIARHSLLG
Take B2: in data set [2], the binding result is “no binding”.
